Test results taken from PMC11686378.
One block for each substance: values may come before it.

How the values were obtained:
[1] = target: Replication Protein A (RPA) heterotrimer from Pyrococcus abyssi, wild type (Pyrococcus abyssi); assay: BLI; RPA or RPA^ΔWH nucleoprotein filaments on a 3'-TEG-biotin 50-nt ssDNA held on streptavidin sensors; PriSL (1.56-100 nM) or PolD (15.62-1000 nM) in solution; steady-state analysis; 25 °C, buffer E with 0.2 mg/ml BSA
[2] = target: DNA primase PriSL (PriS-PriL heterodimer) from P. abyssi, in solution (Pyrococcus abyssi) (UniProt Q9V292)
[3] = target: DNA primase PriSL (PriS-PriL heterodimer) from P. abyssi, in solution (Pyrococcus abyssi) (UniProt Q9V292); remark: listed apart in the source

DNA primase PriSL (PriS-PriL heterodimer) from P. abyssi, in solution (Pyrococcus abyssi), sequence (Q9V292 whole entry, chain 1 of 2): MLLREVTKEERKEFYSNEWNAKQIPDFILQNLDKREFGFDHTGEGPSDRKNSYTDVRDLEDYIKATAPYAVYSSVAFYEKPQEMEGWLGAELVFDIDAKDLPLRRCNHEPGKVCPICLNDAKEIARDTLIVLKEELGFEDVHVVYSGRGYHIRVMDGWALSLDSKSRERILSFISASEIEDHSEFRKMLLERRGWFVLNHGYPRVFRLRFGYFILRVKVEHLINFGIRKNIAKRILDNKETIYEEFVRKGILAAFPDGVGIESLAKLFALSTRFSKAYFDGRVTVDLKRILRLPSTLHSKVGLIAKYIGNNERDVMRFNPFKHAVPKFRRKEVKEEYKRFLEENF
DNA primase PriSL (PriS-PriL heterodimer) from P. abyssi, in solution (Pyrococcus abyssi), sequence (Q9V291 whole entry, chain 2 of 2, further chain): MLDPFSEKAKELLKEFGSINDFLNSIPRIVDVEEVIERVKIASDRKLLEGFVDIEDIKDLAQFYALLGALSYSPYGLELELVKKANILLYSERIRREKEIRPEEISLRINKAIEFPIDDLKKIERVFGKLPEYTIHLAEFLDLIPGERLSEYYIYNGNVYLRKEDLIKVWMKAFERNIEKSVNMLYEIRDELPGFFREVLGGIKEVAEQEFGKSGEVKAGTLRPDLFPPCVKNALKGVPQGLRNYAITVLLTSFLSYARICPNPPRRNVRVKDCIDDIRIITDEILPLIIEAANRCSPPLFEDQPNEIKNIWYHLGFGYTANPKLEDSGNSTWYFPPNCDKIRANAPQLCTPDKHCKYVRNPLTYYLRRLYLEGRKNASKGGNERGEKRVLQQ

Kd [1]: 136 nM
Substance: Replicative DNA polymerase PolD (DP1-DP2 heterodimer) from P. abyssi, in solution (complex)

PriSL primer extension, reduction in long extension products against wild-type RPA, over the RPA concentrations tested [2]: 45%
Substance: RPA^ala-linker, RPA with all 12 glutamic acid residues of the Rpa2 linker substituted with alanine (complex)

PriSL primer extension, long products (≥70 nt), with RPA from 0.05 to 0.8 µM [3]: 5 fold
Substance: Replication Protein A (RPA) heterotrimer from Pyrococcus abyssi, wild type (complex)
